Assay results from US20140186340A1, “Methods and Compositions for Normalization of Tumor Vasculature by Inhibition of LOXL2” (GILEAD BIOLOGICS, INC., priority 2011, published 2014).

Legend:
[1] = test system: SKOV3 ovarian carcinoma cells; experiment: SKOV3 tumor xenograft, tumor growth; assay type: in vivo, mice; conditions: twice weekly i.p., AB0023 15 mg/kg, taxol 5 mg/kg, monitored 40 days, vs vehicle controls
Procedure: (§1) SKOV3 ovarian carcinoma cells were obtained from ATCC, Manassas, Va. 5×10^6 cells, suspended in 50% (v/v) Matrigel, were implanted subcutaneously in female athymic nude mice. After tumors attained a volume of 100 mm^3, the mice received twice weekly intra-peritoneal injections of vehicle, anti-LOXL2 antibody AB0023 (15 mg/kg), taxol (5 mg/kg) or a combination of taxol and AB0023. The experiment was terminated when tumors from control (vehicle-treated) animals attained an average volume of 1,000 mm^3, at which point the animals were sacrificed, tumors were removed and snap-frozen, and 5 μm thick frozen sections were prepared from the frozen tumors.
Female athymic nude mice were implanted with SKOV3 ovarian carcinoma cells which, when transplanted, form highly vascularized subcutaneous tumors. Expression of LOXL2 in these tumors was confirmed by immunohistochemistry; it was noted that most of the LOXL2 immunostaining was associated with vascular structures. When the average tumor volume of the population reached 100 mm^3, the mice were treated twice weekly with intra-peritoneal injections of the anti-LOXL2 antibody AB0023 (15 mg/kg), taxol (5 mg/kg) or a combination of AB0023 and taxol at the concentrations given above. Control mice received injection of vehicle (PBST). Tumor growth was monitored for 40 days.

SKOV3-derived tumors [2] = experiment: SKOV3 xenograft, tumor hypoxia by carbonic anhydrase IX (CA9) levels; assay type: in vivo, mice; conditions: vs vehicle
Procedure: as §1
Sections were fixed with 4% paraformaldehyde and blocked using Peroxidazed 1 and Background Sniper (Biocare Medical, Concord, Calif.) before incubation with primary antibody. Anti-CA9 antibody (Abcam) was applied and Mach2 HRP-polymer (Biocare Medical) was used as secondary antibody. All sections were dehydrated through a series of ethanol dilutions and xylene, mounted using a resinous medium, and visualized using DAB chromogen.
Mice with SKOV3-derived tumors, as described in Example 4, were treated with AB0023 and/or taxol; and the effects on levels of carbonic anhydrase IX (CA9), a marker of hypoxia, were determined. […] Thus, inhibition of LOXL2 reduces vessel density and reduces hypoxia in tumors.

[3] = test system: bFGF-induced angiogenesis; experiment: Matrigel plug assay, vessel counting and immunohistochemistry; assay type: in vivo, mice
Procedure: To determine if inhibition of LOXL2 could modulate angiogenesis in vivo, we examined the effects of the anti-LOXL2 antibody AB0023 on bFGF-induced angiogenesis, using a Matrigel plug assay. Kessler et al. (2004) Cancer Res. 64:1008-1015; Kibbey et al. (1992) J. Natl. Cancer Inst. 84:1633-1638.
For these experiments, either AB0023, at a concentration of 30 mg/kg, or vehicle (PBS+0.01% Tween-20) were injected intraperitoneally (30 mg/kg or equivalent volume) twice weekly into athymic female Ncr:Nu/Nu mice. After one week the mice were injected subcutaneously with 250 or 500 μl Matrigel (BD Biosciences, San Jose, Calif.) supplemented with 100 ng/ml human bFGF (Peprotech, Rocky Hill, N.J.) and 40 or 60 U heparin (Sigma, St. Louis, Mo.). Matrigel plugs were harvested after 10 days, excised together with attached skin, fixed in 10% neutral buffered formalin, and embedded in paraffin. Immunohistochemical analysis was performed on 5 μm serial sections with anti-CD31, anti-CD34, and anti-NG2 antibodies. 2 step sections separated by […] were analyzed per plug. Three representative 10× microscopic fields were selected per section per step, for a total of 6 fields per plug.
Immunohistochemical analysis was performed with anti-CD34 antibody on one representative section from each plug. Three representative 10× fields were selected per section for quantitation. For all IHC analysis of plugs, the mean area of signal was determined for each treatment group using Metamorph software (Molecular Devices).

[4] = test system: human umbilical vein endothelial cells (HUVEC); experiment: Tube formation on Matrigel by HUVEC; assay type: cell-based; conditions: antibody 1 ug/ml, compared to control antibody AC-1; bFGF 5 ng/ml, 24 hours
Description: (§2) HUVEC were isolated from umbilical veins and cultured as described. Gospodarowicz et al. (1983) J. Cell Biol. 97:1677-1685; Kigel et al. (2008) PLoS One 3:e3278. Recombinant human bFGF was produced and purified according to Tessler et al. (1990) J. Cell. Physiol. 145:310-317. For inhibition of LOXL2 expression by shRNA, lentiviruses directing expression of a LOXL2-targeted shRNA and a control shRNA were generated and used to infect HUVEC as described. Brekhman et al. (2009) BMC Cancer 9:415. The anti-LOXL2 monoclonal antibody (AB0023) has been described. See, e.g., Rodriguez et al. (2010) J. Biol. Chem. 285:20964-20974 and United States Patent Application Publication No. 2009/0053224 (Feb. 26, 2009).
Tube formation on Matrigel was carried out as described. Varshaysky et al. (2008) Cancer Res. 68:6922-2931. For shRNA inhibition HUVEC, infected with either shLOXL2-encoding or control lentivirus, were seeded in Matrigel-coated 48 well tissue culture plates (1.6×10^4 cells/well) and incubated with growth medium supplemented with bFGF (5 ng/ml) for 24 hours. […] Phase-contrast images were photographed at 63× magnification and bifurcations-per-field of tube structures in microscopic fields were quantified by manual counting.

SKOV3-derived tumors [5] = experiment: SKOV3 xenograft, pericytes by NG2 and CD31 staining; assay type: in vivo, mice; conditions: vs vehicle
Procedure: as §1
(§3) For assessment of perfusion, the animals were injected intravenously with Hoechst 33342 (40 mg/kg) one minute prior to sacrifice and tumor removal was performed as described by Franco et al. (2006) Cancer Res. 66:3639-3648 and Rijken et al. (2000) Int. […] Bound anti-CD31 was detected with a goat anti-rat CY3-labeled antibody (Jackson Laboratories, Bar Harbor, Me.) and bound NG2 antibodies were detected with a Cy2-labeled anti-rabbit antibody (Jackson Laboratories, Bar Harbor, Me.). The stained sections were visualized using a confocal microscope or a Leica CTR 6000 microscope, and at least five microscopic fields were analyzed in each section. For analysis of perfusion, the coincidence of CD31-staining and Hoechst dye fluorescence was assessed. […]

[6] = test system: human umbilical vein endothelial cells (HUVEC); experiment: bFGF-induced HUVEC migration assay (transwell); assay type: cell-based; conditions: antibody 10 μg/ml, compared to control antibody AC-1; 5 hours
Procedure: To determine whether LOXL2 activity contributes to bFGF-induced migration of human umbilical vein endothelial cells (HUVEC), experiments were conducted in which expression of LOXL2 was inhibited using a LOXL2-targeted shRNA, and LOXL2 activity was inhibited using an anti-LOXL2 antibody.
as §2
For migration assays, HUVEC were seeded in transwell culture dishes (8 μm pores, 3×10^4 cells/well) coated with fibronectin (10 μg/ml, Biological Industries) in 200 μl of M199 medium containing 20% fetal calf serum. […] After 5 hours, cells that had migrated were fixed for 20 minutes with 4% paraformaldehyde, washed three times with PBS, stained with 0.05% crystal violet for 10 minutes, photographed, and counted.

[7] = test system: bFGF-induced angiogenesis; experiment: Matrigel plug assay, flow cytometric analysis; assay type: in vivo, mice; conditions: plugs harvested 7 days after implantation, vs vehicle
Procedure: The anti-angiogenic effects of systemic AB0023 administration in the Matrigel plug assay system were also assessed using flow cytometry to assay for cells expressing CD31, and for CD45-negative cells that express the vascular endothelial growth factor receptor VEGFR2 (an angiogenic marker). Analysis was conducted according to the method described by Adini et al. (2009) J. Immunol. Meth. 342:78-81.

SKOV3-derived tumors [8] = experiment: SKOV3 xenograft, tumor perfusion by Hoechst 33342 / CD31 coincidence; assay type: in vivo; conditions: Hoechst 33342 40 mg/kg i.v. one minute before sacrifice; vs control mice; p<0.05
Procedure: as §1, §3

SKOV3-derived tumors [9] = experiment: SKOV3 xenograft, tumor vessel number by CD31 immunoreactivity; assay type: in vivo, mice; conditions: vs vehicle-treated animals; p<0.01
Procedure: as §1, §3

[10] = independent experiment, vs vehicle

Molecule: CC(=O)O[C@H]1C(=O)[C@@]2(C)[C@H]([C@H](OC(=O)c3ccccc3)[C@]3(O)C[C@H](OC(=O)[C@H](O)[C@@H](NC(=O)c4ccccc4)c4ccccc4)C(C)=C1C3(C)C)[C@]1(OC(C)=O)CO[C@@H]1C[C@@H]2O [taxol, paclitaxel, reference compound]
- tumor growth (increase in tumor volume) [1]: small, statistically insignificant inhibition
- effect on CA9 levels in tumors (SKOV3-derived tumors [2]; taxol 5 mg/kg twice weekly i.p.): did not have a statistically significant effect

B1: AB0023: mouse monoclonal antibody directed against LOXL2; heavy and light chain variable regions SEQ ID NO:1 and 2 (antibody, listed as Mus musculus, V domains shown)
VH: MEWSRVFIFLLSVTAGVHSQVQLQQSGAELVRPGTSVKVSCKASGYAFTYYLIEWVKQRPGQGLEWIGVINPGSGGTNYNEKFKGKATLTADKSSSTAYMQLSSLTSDDSAVYFCARNWMNFDYWGQGTTLTVSS
VL: MRCLAEFLGLLVLWIPGAIGDIVMTQAAPSVSVTPGESVSISCRSSKSLLHSNGNTYLYWFLQRPGQSPQFLIYRMSNLASGVPDRFSGSGSGTAFTLRISRVEAEDVGVYYCMQHLEYPYTFGGGTKLEIK
- number of blood vessels in Matrigel plugs (whole plug vessel counting) ([3]; 30 mg/kg i.p. twice weekly, athymic Ncr:Nu/Nu mice, plugs after 10 days, vs vehicle): significant reduction
- CD31 levels in Matrigel plug sections ([3]; 30 mg/kg i.p. twice weekly, plugs after 10 days, vs vehicle): reduced
- CD34 immunoreactivity in implanted plugs ([3]; further study, vs vehicle and control antibody AC-1): loss of CD34 immunoreactivity
- staining for CD34 in Matrigel plugs [3, 10]: significant reduction
- staining for pericyte marker NG2 in Matrigel plugs [3, 10]: significant reduction
- tumor growth (increase in tumor volume) [1]: did not inhibit tumor growth
- tube formation on Matrigel [4]: inhibited
- total number of NG2-expressing cells in tumors (SKOV3-derived tumors [5]): not significantly changed
- concentration of vessel-associated pericytes in tumors (correspondence of CD31 and NG2 staining) (SKOV3-derived tumors [5]; p<0.01): significantly increase
- bFGF-induced cell migration of HUVEC [6]: inhibited
- number of CD31+ cells in plugs (flow cytometry) [7]: significantly reduced
- number of VEGFR-2+/CD45- endothelial cells in plugs (flow cytometry) [7]: significantly reduced
- tumor perfusion (Hoechst staining associated with CD31-positive vessels) (SKOV3-derived tumors [8]): better perfusion
- reduction in CA9 levels in tumors (SKOV3-derived tumors [2]; AB0023 15 mg/kg twice weekly i.p., p<0.05): 66%
- CD31 immunoreactivity in tumors (concentration of tumor-associated blood vessels) (SKOV3-derived tumors [9]): statistically significant decrease
